{"source": "the DeepSol protein solubility set", "data": [{"test": "soluble on expression in E. coli; label from the status in PepcDB or PDB records", "values": [{"sequence": "MTSIDVTEIIKSSTSSLYQPARKKSRFDDSASSSSQAGQPKPEDILAALEADQSNYVALDDVQVKKLVIQLDKKMRLNREQRVKNPDDAQKFMESEIELDKAIQEMHSLASQPDLYGSFVEVNGVEILLQLLGHENTDIVCATLSLLRELTDDDVMNEGEDGAAELIESLVSGSIITTLLACVERLDESVKDEADGVHNALGVVDNMIGFRDDITEECVKHGFTVWLLKRCFQKGAFDANKMYASELLSVILQTSDTAKAKLTEKIDGIDILLRTIAVYKKNDPANVDEREYMENLFNSLCAALMHPANRKKFLDGEGLQLMNLMLREKKQARQSALKVLNHATSGDEGIENCNKLVEMLGLRTIFPLFMRTPSKTKRKDTTPDEHEEHVCTILSSLLAACSENHRQRIVQKFVEHEHEKVDRAVELFLKYKEKVQRFELKKKRQSQEAGTSEDDDPDRAYLDKLDNGLYTLQRLTLILGEVAVGVESARLREEKLFQMKMSQNRLDLMLCPIIQEYSDNLGDDANIEQERVLVMLSKIEDFYK", "soluble on expression in E. coli": "not soluble"}, {"sequence": "MTSLSSPSPIQHTTSSFLNNFMPTPSLINLQQGYRNPDLGSQDLARLDASRHESIQKVSRKLSTYEEEKNLIENELEEIERTGARLLSIVEQKDNFLASRIRRFMEKSKELVGIETLLRLQLNKHNERIKDGLIDISAARGEESYLQKRFKDTDFLRKISARREIDYDKELSEIFTDDQFHRWVMFKKATLQLLQTESSVSYYIRESNAKLDALHLAPRGTSA", "soluble on expression in E. coli": "not soluble"}, {"sequence": "MTSPASCSPPNEKRTGSPFPPESRSLPSTMEMTMNTIFRPAPHPLPDAPFYTPLGNECVLFESAWVRQLPLLLKGPTGCGKTRFVSHMAAKLGLPLSTISCHDDLAAADLTGRYLLKGGETVWMDGPLTRSVRQGGICYLDEIVEARKDVAVVLHPLTDDRRILPLERTGEVLEAPSGFMLVVSYNPGYQNLLKSLKPSTRQRFVAIEFDFLPKEQEIAVVSHESGLDARDVEPLVDLAHRLRGLKGHDLEEGVSTRLLVYCASLIDTGLPARQAVRATMIEPLTDEPDVKAALHEVADAIIRLEHHHHHH", "soluble on expression in E. coli": "not soluble"}, {"sequence": "MTSPYATIVDAREFNAPMFAEKIDRALRAGEKDAVVNVITSISNAQRQQLREPYKLKYGKDIIQALDKKFSGDLEKAIFALMETPLDYDVKQLKAAMKGLGTDEAVLIEILCSRTVDQLRAIRVTYEKEYGKALEADIAGDTSGEFRDLLVSLVTGSKDGSHDTNDAQAKDDAVRLFADGKAKLAKKDGTHFLHILATQNQYQLRKVFAYFQELAGGSIEKSIEKEFSGDLQKSYLTIVRAASDKQKFFAQQLHASMKGLGTRDNDLIRVIVTRSEVDLELIKAEFQELYSKSLADTVKGDTSGAYRDALLSIINGNHATAH", "soluble on expression in E. coli": "not soluble"}, {"sequence": "MTSRMQPKSGVYSVSKADFTKIFEDVPKVPITSAVDLRNKFDAVRIILSNSSEDWNKRQTQLKTVRSLVIHGEKVVDRPTMIAHLVQLLGCFELAVKDLRSQVLREAAITCSFIVSKYGIETHSIGEDILVPAMSQVAVSTKIMATSASTLTEFIVEYVQTRQVFTILSSFSTSKDKSQRRQLAALLEIVISKWSDRIKKQIMRQICELIKSAINDADSETRAAGRRAFAKLDEMHSEEADALYLELDHSKQKMLRGGDAASSWASVNSEKGSIPIRSKLSAGSKAHMNISAISEKKEGIKKLLPIVADTSLNPIEIKNIGNCLNRLLSDASNTMVLEIYSIFVRTHSSRLSEWLRLALAKLFARKAAETLPNTKKQIGHTLNVILECFNAHHQLVTVCELMCDPIHLMVPKARVVLLEYLTSLLDEYTEPGASINAKELKTAIRKMLTWASDPRLSILLTPHVEKAICSMFCVNVADFSALISDLDSEQKNWIHQTLQRNGLENGISSNNIATNSGATASRETSNTSFQKESTSFGLPEFGARKGGTGVNLGSLNISNNLALSRLEEQSTSRLMEKVNLNSTVTLPPDTLEKIQNVQDLLQKMRSSENADEQESAISSIYMMICDGGFGVWEQCYAKLLLNLFEILSKSRSENNKKMCLRILGKMCTAQAAKLFDSTEMAVCKVLDAAVNTNDATTALAVEDCLRTLATHLPLSNIINIAKVILNQEPIDDERASLVLKMVTRLFEELPAEELNNIVDDITPTIIKAYQSTSSTVRKTVVYCLVAMVNRVGEQRMTPHFTKLPKAMTNLIQVYVNRAISTSLPRL", "soluble on expression in E. coli": "not soluble"}, {"sequence": "MTTFSHSSTTPSVSVTTASGNNQSQLVATPVPDEQRISFWPQHFGLIPQWVTLEPRVFGWMDRLCEDYCGGIWNLYTLNNGGAFIAPEPDEDDGETWILFNAMNGNRAEMSPEAAGIAACLMTYSHHACRTECYAMTVHYYRLRDYALQHPECSAIMRIID", "soluble on expression in E. coli": "not soluble"}, {"sequence": "MTTIDLNCDLGESFGAYKMGNDDEILPFVSSINVACGFHAGDPSIMRQTVEKALEHNVAIGAHPGFPDLIGFGRRNMNVSASEVYDYVLYQTGALDAFVKAAGGKMQHVKPHGALYNMAASNPEIADAIAKAIYHINPSLLLYGLANSEAFIQAAEKYKVTLVQEAFADRTYKQDGTLTSRTEENALIKDEDEAIKQVLQMVKEGYVNSVNGEKVAVQAQTICLHGDGEKAVQFAERIYRTFKLNGISICAPKLEHHHHHH", "soluble on expression in E. coli": "soluble"}, {"sequence": "MTTKKFRMEDVGLSKLKVEKNPKDVKQTEWKSVLPNEVYRVARESGTETPHTGGFNDHFEKGRYVCLCCGSELFNSDAKFWAGCGWPAFSESVGQDANIVRIVDRSHGMHRTEVRCKTCDAHLGHVFNDGPKETTGERYCINSVCMAFEKKD", "soluble on expression in E. coli": "soluble"}, {"sequence": "MTTKNTLQPTEAAYIAGFLDGDGSIYAKLIPRPDYKDIKYQVSLAISFIQRKDKFPYLQDIYDQLGKRGNLRKDRGDGIADYTIIGSTHLSIILPDLVPYLRIKKKQANRILHIINLYPQAQKNPSKFLDLVKIVDDVQNLNKRADELKSTNYDRLLEEFLKAGKIESSPTGSGSGSKHPTLTLPTTTSQENLPNGSGSGSGTMTTKNTLQPTEAAYIAGFLDGDGSIYAKLIPRPDYKDIKYQVSLAISFIQRKDKFPYLQDIYDQLGKRGNLRKDRGDGIADYTIIGSTHLSIILPDLVPYLRIKKKQANRILHIINLYPQAQKNPSKFLDLVKIVDDVQNLNKRADELKSTNYDRLLEEFLKAGKIESSP", "soluble on expression in E. coli": "soluble"}, {"sequence": "MTTLPPPATELSADEARRLALRAQGFLGAPDRRAGVRGVLRHLGAVQLDTISVLARSHELIPYARLGAVGRRTVDDAYWTDTHAFEYWSHAACILPIEEWPHFAFRRRAYRNRPHWNHHLPEGDYDRVVKQLREEGPLTATDLGGAKRTSEWWDWSGTKVAVERALMYGEVVCVERRGWKRVYDLAERAVPAALLHDDLDDTECLRRLVRLAGQSLGVGTRADIADYHRLKAEQVDAVIADSGLVPVTVAGWGRPAWADPAALETVPRGRHRTTLLSPFDSLIWERARTERIFGFTHRLEAYVPRQKRVHGYFAMPVLAGGRLVGRVDPAREGRTLVAKQVTLDGPKAAPAVAQALVEAAGWVDCTNVRVERVETPDLREPLARELARLLDLEHHHHHH", "soluble on expression in E. coli": "not soluble"}, {"sequence": "MTTMSGYTRSQRPRQAILGQLPRIHRADGSPIRVLLVDDEPALTNLVKMALHYEGWDVEVAHDGQEAIAKFDKVGPDVLVLDIMLPDVDGLEILRRVRESDVYTPTLFLTARDSVMDRVTGLTSGADDYMTKPFSLEELVARLRGLLRRSSHLERPADEALRVGDLTLDGASREVTRDGTPISLSSTEFELLRFLMRNPRRALSRTEILDRVWNYDFAGRTSIVDLYISYLRKKIDSDREPMIHTVRGIGYMLRPPE", "soluble on expression in E. coli": "not soluble"}, {"sequence": "MTTPSPQEISTVTLNSLSKEERKKAILALQTKKNEIKLVIDEHQKKLAEFRQSIPDGCCEMFENEKKIRLKHSSTAELLPHLQKVGSSSVDKEKMINNIRQRVEVQVADQETFKSIEERNELLRRENENLKKEVNTVAAELLQEFESYE", "soluble on expression in E. coli": "not soluble"}, {"sequence": "MTTRDLTAAYFQQTISANSNVLVYFWAPLCAPCDLFTPTYEASSRKHFDVVHGKVNIETEKDLASIAGVKLLPTLMAFKKGKLVFKQAGIANPAIMDNLVQQLRAYTFKSPAGEGIGPGTKTSS", "soluble on expression in E. coli": "soluble"}, {"sequence": "MTTRRLALFDLDHTLLPLDSDYQWADFLARTGRAGDPAEARRRNDDLMERYNRGELTAEQAAEFMLGLLAAHSPVELAAWHEEFMRDVIRPSLTVQAVDVVRGHLAAGDLCALVTATNSFVTAPIARAFGVQHLIATDPEYRDGRYTGRIEGTPSFREGKVVRVNQWLAGMGLALGDFAESYFYSDSVNDVPLLEAVTRPIAANPSPGLREIAQARGWQVIDLFDHLEDAKS", "soluble on expression in E. coli": "soluble"}, {"sequence": "MTVAVSPDGLPALVLNADYRPLSYYPLSLWSWQDAIKAVFLDRVNIVAEYEHAVSSPTFSMKLPSVVSLKAYVKPSRHPAFTRFNVFLRDRFQCQYCGTPDDLTFDHVIPRHRGGATTWENVVAACSPCNLRKGGMMPAHAKMWPLQKPYQPTVHDLHNNGRLFPPNHLHESWMDYLYWDVELEPLEHHHHHH", "soluble on expression in E. coli": "not soluble"}, {"sequence": "MTVEASRPARSRQAVIFCYNAGYLPFALHAAERIDRLTPGRAFDICICHGEEPILVPDSLSRLDVRLIRIDTTGVFTGLRLDPGRTHDVYLRLALPQALAADYDRILYLDADIFVQGGDFTALLGLDLGNHPLGAVRDNIQWRTPERRAEQFRRLGIPAAPYFNAGLLLMDVARYNEMNLLDRCVELGRREASRMIRHDQNLYNAVLRGDWAELSPMWNWQYSWSARLFEAMRYPHIVHFIGTLKPWADRKGHYSPRFAQSYDRFIADHFPDRPRNPVSGGLSPDSRMMRRMLVKHFLSSSKLARYLDRFPSDLTVIRLEHHHHHH", "soluble on expression in E. coli": "not soluble"}, {"sequence": "MTVETFHPKQTTTLETPAKTLEAASADSVNTGNVATGNRIGFVSLGCPKNLVDSERILTQLRIDGYEVTNSYDNADLVIVNTCGFIDAAVEESLDAVREALEENGKVIVTGCLGAKENQIREVHPDVLEITGPHSYEAVLKHVHKYVPKPEHNPFTSLIPQTGVKLTPKHYAYLKISEGCDNRCTFCIIPALRGDLDSRGAGSVLDEAKRLVEAGVQEILVVSQDTSAYGKDKGGRTDFWNGMPVKQDITSLARQLGKMGAWVRLHYIYPYPWVDDLIPLMAEGLILPYLDIPMQHASPRILKMMKRPGRVDRQLEAIQRWREICPDLVIRSTFIVGFPGETEEDFEMLLDFLREARLDRVGCFKYSEVEGAVANTIAELISEEVKEDRYHRFMEVQAEISAERLARFVGRTMDILIDDVDEEGAIGRSFADAPEIDGMVFINGETELEPGMLVRAVITHSDEHDLWAELVDADAEDEVEALEHHHHHH", "soluble on expression in E. coli": "soluble"}, {"sequence": "MTVSLLDSSTRYHAVTALNGNVLFSGARRPMPTVMLLHTPPPEFIRSQIQQMVVDYVTDISMVAIAPGNPLYNLYQYGVGYEVHLYLNAMNGSQSLTVELIVALDDEDPETVLGFLLYLPVQDDPQACAVAYMAVLESHRCQGIARLMLDRMVSRYAHAELYCTVAKVPYFQAMGFQVLGARGPQVIMNTRDHGTDGLLAVMDIAPIYSSVEVRQIHAYLLKQHGNTAMLDAEKQRDHHLDRMTREARAFAEQHLENGDSVHGVSATVRLH", "soluble on expression in E. coli": "not soluble"}, {"sequence": "MTVYNRTKQKTEDLVTEGAQAADTPRLAAKSADIVITMLADDDSVSTVTFGEDGLLEGLAENGIHISMSTISVEFSEKLAAAHAEKGQFFLAAPVLGRPDAAAKAALRIITAGPAEAKQAAKPLLDSLSQQIFDVGEESKTANAAKISINFLLVSMLEALSESFLMMEKYGLEQKQFLEIASALFGSPVYQNYGTIMAEQKFEPAGFKMSLGLKDTNLALAAAKRVSANLPLAELAKSHFESGIEKGFGDLDWAALIKCIK", "soluble on expression in E. coli": "not soluble"}, {"sequence": "MTYDYVIGMDACKYFHHACVLDIDGTQVLSKRINQNEQSLRALFSAFSAYDHKVLVVVDQPNNIGRLTVAVAQDIGIDVRYLPGLAMRQLSRIHAGNAKTDIRDAYIIAHAAKNLPESLRSVDRVEEAFLQLKVLNGIDEDLARSYTRLINQIRSALVGCYPQFEQALRGQIIHRKWVLHLLARYGGPTKIKRLGKAKAAAFARRYKARNPEPVLDAIFAAISEQTVTIAGAHYAEMGVAMSAKDALLKLEHRQQIEKEVIELINDIPHTQFLLSMPGIGPKTAAQILMTAGDMSDFPSAGHLASYAGLSPRTNQSGTSIMSNSLNRAGNKKLKNALWQSSFASIRFHERSRQFYERKRREGKRHNAAVVALARRRLNVLYAMMRNHEHYHDPAPSQEDLAA", "soluble on expression in E. coli": "not soluble"}]}]}
